Reference: IntAct's records for PubMed 19737520

B1: Trigger factor (Thermotoga maritima (strain ATCC 43589 / MSB8 / DSM 3109 / JCM 10099)), Q9WZF8 (parent)
chain: MEVKELERDKNRVVLEYVFGAEEIAQAEDKAVRYLNQRVEIPGFRKGRIPKNVLKMKLGEEFQEYTLDFLMDLIPDTLKDRKLILSPIVTERELKDVTARVVVEVHEEPEVRIGDISKIEVEKVDEEKVLEKYVERRIEDLRESHALLEPKEGPAEAGDLVRVNMEVYNEEGKKLTSREYEYVISEDEDRPFVKDLVGKKKGDVVEIEREYEGKKYTYKLEVEEVYKRTLPEIGDELAKSVNNEFETLEQLKESLKKEGKEIYDVEMKESMREQLLEKLPEIVEIEISDRTLEILVNEAINRLKREGRYEQIVSSYESEEKFREELKERILDDIKRDRVIEVLAQEKGISVNDEELEKEAEELAPFWGISPDRAKSLVKARQDLREELRWAILKRKVLDLLLQEVKVKVVEPKGEGDDSEGKEDN
partner: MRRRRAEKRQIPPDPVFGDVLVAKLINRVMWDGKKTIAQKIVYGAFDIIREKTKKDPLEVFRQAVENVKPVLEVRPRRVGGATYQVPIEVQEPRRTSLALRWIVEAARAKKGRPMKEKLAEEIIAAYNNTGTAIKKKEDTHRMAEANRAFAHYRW

Variants of: B1
Conditions: with rs7_thema rpsG

Row | Variant | effect of a mutation on the interaction
1 | E266R;E269R;E273R | disrupting interaction
